Test results from PMC7708039, “Tethering-facilitated DNA ‘opening’ and complementary roles of β-hairpin motifs in the Rad4/XPC DNA damage sensor protein”.
Positions count from the first letter of the chain named.

Experiments:
[1] = target: T1, Rad4-Rad23 delta-beta-hairpin3 (<137>) (UniProt P14736;P32628 101-598+606-632;1-77+230-398, internal_change;internal_change); experiment: competitive EMSA; apparent Kns; 1000 nM cold CH7_NX competitor; EMSA: 5 mM BTP-HCl pH 6.8, 75 mM NaCl, 5 mM DTT, 5% glycerol, 0.74 mM CHAPS, 500 ug/ml BSA, room temperature 20 min, 5 nM labeled DNA, 1000 nM cold CH7_NX; details: protein: recombinant; tags: N-terminal His tag on Rad4; copies: 1;1; label: 32P; fully matched; 5' overhang 1 nt at both ends
T1 sequence 1: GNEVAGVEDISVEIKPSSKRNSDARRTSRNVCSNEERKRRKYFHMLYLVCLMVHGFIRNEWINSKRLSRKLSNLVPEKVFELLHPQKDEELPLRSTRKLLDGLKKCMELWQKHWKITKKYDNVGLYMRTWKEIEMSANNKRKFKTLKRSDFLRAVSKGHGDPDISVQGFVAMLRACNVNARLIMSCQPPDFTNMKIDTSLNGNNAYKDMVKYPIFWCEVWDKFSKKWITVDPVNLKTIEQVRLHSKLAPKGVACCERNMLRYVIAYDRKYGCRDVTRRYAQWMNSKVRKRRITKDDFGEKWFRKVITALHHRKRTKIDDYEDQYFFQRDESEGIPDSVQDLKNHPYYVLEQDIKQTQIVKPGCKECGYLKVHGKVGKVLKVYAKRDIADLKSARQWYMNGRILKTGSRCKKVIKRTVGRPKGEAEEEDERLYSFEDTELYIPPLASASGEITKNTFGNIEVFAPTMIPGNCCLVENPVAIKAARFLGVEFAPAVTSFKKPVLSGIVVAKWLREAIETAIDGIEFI
T1 sequence 2: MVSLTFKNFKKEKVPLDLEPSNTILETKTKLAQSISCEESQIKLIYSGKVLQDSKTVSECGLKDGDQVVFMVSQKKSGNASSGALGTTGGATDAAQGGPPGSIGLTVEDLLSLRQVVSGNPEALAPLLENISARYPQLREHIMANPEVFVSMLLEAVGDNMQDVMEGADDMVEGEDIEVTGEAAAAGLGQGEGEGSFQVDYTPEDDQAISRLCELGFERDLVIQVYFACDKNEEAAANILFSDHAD

[2] = target: T2, Rad4-Rad23 delta-beta-hairpin2 (<130>) (UniProt P14736;P32628 101-514+528-632;1-77+230-398, internal_change;internal_change); experiment: as above; details: protein: recombinant; tags: N-terminal His tag on Rad4; copies: 1;1; label: 32P; fully matched; 5' overhang 1 nt at both ends
T2 sequence 1: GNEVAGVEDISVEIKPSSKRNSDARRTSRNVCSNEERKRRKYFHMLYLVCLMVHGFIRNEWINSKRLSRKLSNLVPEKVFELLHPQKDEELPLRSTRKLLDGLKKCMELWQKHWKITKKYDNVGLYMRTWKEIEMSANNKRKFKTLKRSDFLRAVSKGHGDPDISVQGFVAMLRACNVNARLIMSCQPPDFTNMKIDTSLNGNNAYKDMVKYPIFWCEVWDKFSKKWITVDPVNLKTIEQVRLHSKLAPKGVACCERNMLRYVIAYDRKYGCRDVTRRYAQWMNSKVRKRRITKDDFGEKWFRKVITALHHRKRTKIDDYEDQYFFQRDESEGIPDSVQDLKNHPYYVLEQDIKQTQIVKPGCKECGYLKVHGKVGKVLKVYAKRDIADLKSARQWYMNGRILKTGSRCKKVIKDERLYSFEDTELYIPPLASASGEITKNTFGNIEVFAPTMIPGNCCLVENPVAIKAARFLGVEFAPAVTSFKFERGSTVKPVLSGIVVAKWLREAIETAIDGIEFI
T2 sequence 2: T1 sequence 2

[3] = target: T3, Rad4-Rad23 WT (no thrombin cleavage) (UniProt P14736;P32628 101-632;1-77+230-398, internal_change); experiment: as above; details: protein: recombinant; tags: N-terminal His tag on Rad4; copies: 1;1; label: 32P; fully matched; 5' overhang 1 nt at both ends
T3 sequence 1: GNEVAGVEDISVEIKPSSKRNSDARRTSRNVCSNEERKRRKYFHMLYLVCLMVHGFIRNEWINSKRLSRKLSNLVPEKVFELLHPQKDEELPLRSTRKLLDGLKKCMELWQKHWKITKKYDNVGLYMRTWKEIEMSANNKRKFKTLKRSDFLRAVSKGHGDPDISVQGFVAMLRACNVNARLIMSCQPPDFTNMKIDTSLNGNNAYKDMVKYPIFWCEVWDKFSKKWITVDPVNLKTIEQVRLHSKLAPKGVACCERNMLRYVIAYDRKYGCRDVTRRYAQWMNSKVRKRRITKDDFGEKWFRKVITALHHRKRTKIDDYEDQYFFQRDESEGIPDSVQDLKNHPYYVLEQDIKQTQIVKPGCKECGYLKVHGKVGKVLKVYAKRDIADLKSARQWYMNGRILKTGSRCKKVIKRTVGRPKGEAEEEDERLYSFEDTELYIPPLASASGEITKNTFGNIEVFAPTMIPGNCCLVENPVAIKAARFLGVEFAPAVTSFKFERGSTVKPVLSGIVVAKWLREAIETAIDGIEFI
T3 sequence 2: T1 sequence 2

[4] = target: T1, Rad4-Rad23 delta-beta-hairpin3 (<137>); experiment: competitive EMSA; apparent Ks; 1000 nM cold CH7_NX competitor; EMSA: 5 mM BTP-HCl pH 6.8, 75 mM NaCl, 5 mM DTT, 5% glycerol, 0.74 mM CHAPS, 500 ug/ml BSA, room temperature 20 min, 5 nM labeled DNA, 1000 nM cold CH7_NX; details: protein: recombinant; tags: N-terminal His tag on Rad4; copies: 1;1; label: 32P; 3-bp CCC/CCC mismatch; 5' overhang 1 nt at both ends
[5] = target: T2, Rad4-Rad23 delta-beta-hairpin2 (<130>); experiment: as above; details: protein: recombinant; tags: N-terminal His tag on Rad4; copies: 1;1; label: 32P; 3-bp CCC/CCC mismatch; 5' overhang 1 nt at both ends
[6] = target: T3, Rad4-Rad23 WT (no thrombin cleavage); experiment: as above; details: protein: recombinant; tags: N-terminal His tag on Rad4; copies: 1;1; label: 32P; 3-bp CCC/CCC mismatch; 5' overhang 1 nt at both ends
[7] = target: T4, Rad4-Rad23 WT crosslinkable (<SC32>) (UniProt P14736;P32628 101-632;1-77+230-398, V131C;C132S;internal_change); experiment: fluorescence lifetime FRET; non-covalent, equimolar; EMSA: 5 mM BTP-HCl pH 6.8, 75 mM NaCl, 5 mM DTT, 5% glycerol, 0.74 mM CHAPS, 500 ug/ml BSA, room temperature 20 min, 5 nM labeled DNA, 1000 nM cold CH7_NX; details: protein: recombinant; tags: N-terminal His tag on Rad4 (fluorescence); copies: 1;1; label: tCo donor, tCnitro acceptor; 3-bp CCC/CCC mismatch
T4 sequence 1: T3 sequence 1 with V31C, C32S
T4 sequence 2: T1 sequence 2

B1: CCC/GGG matched (dsDNA)
DNA 1: TTGACTCGACATCCCCCGCTACAA
DNA 2: ATTGTAGCGGGGGATGTCGAGTCA
Question: What does the source list for B1?
Answer: Kd [1]: ~510 nM; Kd [2]: ~700 nM; Kd [3]: ~370 nM

B2: CCC/CCC mismatched (CH10_NX) (dsDNA)
DNA 1: TTGACTCGACATCCCCCGCTACAA
DNA 2: ATTGTAGCCCCGGATGTCGAGTCA
Question: What does the source list for B2?
Answer: Kd [4]: ~200 nM; Kd [5]: ~260 nM; Kd [6]: ~60 nM

B3: CCC/CCC_G*_DA (dsDNA)
DNA 1: TTGACTCGACATCCCCCGGTACAA
DNA 2: ATTGTACCCCCGGATGTCGAGTCA
modifications: disulfide-modified guanine G* in top strand
Question: Does B3 bind [7]?
Answer: Result: binds
